According to article doi:10.1101/2023.04.20.537738 (bioRxiv, 2023):

Target: SARS-CoV-2 (WA-1) Spike receptor binding domain (RBD)-mouse Fc fusion protein (SARS-CoV-2, UniProt P0DTC2)
Assay: flow cytometry on cells

B1: FG-10A3 (Family G clone 10A3) human anti-SARS-CoV-2 Spike RBD neutralizing monoclonal antibody (antibody, V domains shown)
VH: QVQLVESGGGVVQPGRSLRLSCAASGFTFSSYGMNWVRQAPGKGLEWVAIIWYDGNNTYYVDSVKGRFTISRDNSKNTLYLQMNSLRAEDTAVYYCARKDGSKTYYGYYFDYWGQGTLVTVSS
VL: DIQMTQSPSSLSASVGDRVTITCRASQSIHSFLNWYQQKPGKPPNLLIYAASSLQSGLPSRFSGSGSGTDFTLTISSLQPEDFATYYCQQSYITPPTFGHGTKVEIK
  binding result: binds
